The values that follow come from paper PMC12609908.

In the series the target is T1, CutR (Mycobacterium sp. strain JC1, UniProt D5G1X9 1-320).
T1 sequence: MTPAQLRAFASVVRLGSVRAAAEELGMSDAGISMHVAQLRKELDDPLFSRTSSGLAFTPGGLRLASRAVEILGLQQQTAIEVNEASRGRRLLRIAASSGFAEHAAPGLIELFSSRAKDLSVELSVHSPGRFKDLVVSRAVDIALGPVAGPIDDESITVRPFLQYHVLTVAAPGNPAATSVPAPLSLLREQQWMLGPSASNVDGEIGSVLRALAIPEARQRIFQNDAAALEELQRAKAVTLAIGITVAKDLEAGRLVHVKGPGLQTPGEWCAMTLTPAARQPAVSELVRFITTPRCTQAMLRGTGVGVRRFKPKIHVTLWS
As to the kind of experiment: EMSA; no CO; 50 mM Tris-HCl pH 8.0, 100 mM NaCl, 40% glycerol, 5 mM DTT, 2 mM EDTA, 4 °C 1 h; 10% native PAGE in 0.5x TBE at 4 °C. Particulars: protein: recombinant; tags: C-terminal His6; chain copies: 2; label: 5'-biotin (forward strand); blunt.

B1: IR2 (29 bp) (dsDNA)
DNA 1: GGGCCAGTTAAGCGATTCCTTAAGGGGGG
DNA 2: CCCCCCTTAAGGAATCGCTTAACTGGCCC
Take B1: the binding result is reported as “binds”.
